# Data as given in PMC10718286.
# Test system: C[S+](CC[C@H](N)C(=O)O)C[C@H]1O[C@@H](n2cnc3c(N)ncnc32)[C@H](O)[C@@H]1O
# Assay: purified protein
# Conditions: catalytic SET domain; varied: cofactor
substance,measurement,value
"SETDB1 (full-length, SETDB1-FL) (Homo sapiens)",kcat,8.06e-05 s⁻¹
same,kcat/Km,88.9 M⁻¹ s⁻¹
